Biological target: wasf2_human WASF2 (UniProt Q9Y6W5)

“Ras-related C3 botulinum toxin substrate 1 (Homo sapiens) (from UniProt P63000-1) Q61L” was tested. Which “effect of a mutation on the interaction” value did it give?
The value was “increasing interaction strength”.

— IntAct's records for PubMed 24132237
